Laboratory results reported in the supplement of paper PMC7877785.
± gives the uncertainty stated by the source.

Assay: self-splicing fitness, log relative to wild type (ln ratio); higher = more splicing; Tetrahymena group I intron in knt gene, E. coli kanamycin selection, DiMSum; sequences stand for … in CUCUCU…GGAGGGAAAAGUUAUCAGGCAUGCACCUGGUAGCUAGUCUUUAAACCAAUAGAUUGCAUCGGUUUAAAAGGCAAGACCGUCAAAUUGCGGGAAAGGGGUCAACAGCCGUUCAGUACCAAGUCUCAGGGGAAACUUUGAGAUGGCCUUGCAAAGGGUAUGGUAAUAAGCUGACGGACAUGGUCCUAACCACGCAGCCAAGUCCUAAGUCAACAGAUCUUCUGUUGAUAUGGAUGCAGUUCACAGACUAAAUGUCGGUCGGGGAAGAUGUAUUCUUCUCAUAAGAUAUAGUCGGACCUCUCCUUAAUGGGAGCUAGCGGAUGAAGUGAUGCAACACUGGAGCCGCUGGGAACUAAUUUGUAUGCGAAAGUAUAUUGAUUAGUUUUGGAGUACUCGUGGUCG
Summary of the method: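 The eight P1ex-region nucleotides of an intron in the knt kanamycin-resistance gene on pET-22b(+) were all randomised and the library put into E. coli BL21(DE3). Six replicate transformations were grown overnight at 37°C or 30°C on LB agar with or without 25 μg/mL kanamycin, together with 100 μg/mL carbenicillin, 50 μM IPTG and 0.2% rhamnose. Colonies were pooled and amplicon-sequenced on an Illumina HiSeq 2500. Fitness from DiMSum is the error-weighted combination of wild-type-normalised replicate fold changes, kanamycin over none.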

| Sequence | self-splicing fitness (ln) (30 °C) | self-splicing fitness (ln) (37 °C) |
| --- | --- | --- |
| AUCCAGCAAUAUUACGCUCC | -0.802 ± 0.12 | 0.304 ± 0.2 |
| AUCCAGCAAUAUUACGGAUA | -3.19 ± 0.18 | -0.948 ± 0.12 |
| AUCCAGCAAUAUUACGGUCA | -0.209 ± 0.065 | 0.168 ± 0.072 |
| AUCCAGCAAUAUUACGGUCG | -0.645 ± 0.058 | 0.12 ± 0.089 |
| AUCCAGCAAUAUUACGUUGC | -3.87 ± 0.14 | -2.86 ± 0.15 |
| AUCGAGCAAUAUUACGAACC | -0.925 ± 0.36 | -0.838 ± 0.4 |
| AUCGAGCAAUAUUACGAGAG | -3.84 ± 0.39 | -1.14 ± 0.19 |
| AUCGAGCAAUAUUACGAUUU | -1.42 ± 0.11 | -0.535 ± 0.13 |
| AUCGAGCAAUAUUACGCACC | -1.65 ± 0.18 | – |
| AUCGAGCAAUAUUACGCCUC | -2.06 ± 0.39 | -1.98 ± 0.45 |
| AUCGAGCAAUAUUACGGAGA | -2.8 ± 0.22 | -2.7 ± 0.29 |
| AUCGAGCAAUAUUACGGAGU | -3.83 ± 0.31 | -2.42 ± 0.23 |
| AUCGAGCAAUAUUACGGGUU | -3.65 ± 0.23 | -2.32 ± 0.2 |
| AUCGAGCAAUAUUACGGUCU | -3.03 ± 0.2 | -1.77 ± 0.2 |
| AUCGAGCAAUAUUACGUCGA | -2.83 ± 0.19 | -2.03 ± 0.19 |
| AUCUAGCAAUAUUACGAACC | -1.08 ± 0.18 | -0.855 ± 0.2 |
| AUCUAGCAAUAUUACGAACG | -0.816 ± 0.12 | -0.644 ± 0.22 |
| AUCUAGCAAUAUUACGAAUC | -4.05 ± 0.36 | -3.15 ± 0.27 |
| AUCUAGCAAUAUUACGACAC | -1.02 ± 0.11 | 0.13 ± 0.13 |
| AUCUAGCAAUAUUACGAGAU | -2.88 ± 0.26 | -2.31 ± 0.34 |
| AUCUAGCAAUAUUACGAGCU | -2.29 ± 0.17 | -0.565 ± 0.17 |
| AUCUAGCAAUAUUACGAGUG | -1.41 ± 0.078 | -1.32 ± 0.12 |
| AUCUAGCAAUAUUACGCAGA | -3.1 ± 0.49 | -1.82 ± 0.23 |
| AUCUAGCAAUAUUACGCCCU | -0.479 ± 0.19 | 0.46 ± 0.19 |

| Sequence | self-splicing fitness (ln) (30 °C) | self-splicing fitness (ln) (37 °C) |
| --- | --- | --- |
| AUCUAGCAAUAUUACGCUCG | -0.792 ± 0.091 | -0.0276 ± 0.12 |
| AUCUAGCAAUAUUACGGACU | 0.0775 ± 0.11 | 0.443 ± 0.12 |
| AUCUAGCAAUAUUACGGAGG | -1.93 ± 0.14 | -1.96 ± 0.23 |
| AUCUAGCAAUAUUACGGCAA | -0.584 ± 0.14 | -0.113 ± 0.14 |
| AUCUAGCAAUAUUACGGCCA | -1.06 ± 0.12 | -0.879 ± 0.13 |
| AUCUAGCAAUAUUACGGGCG | -0.656 ± 0.1 | -0.967 ± 0.11 |
| AUCUAGCAAUAUUACGGGGG | -1.65 ± 0.11 | -1.9 ± 0.15 |
| AUCUAGCAAUAUUACGGGUC | -5.59 ± 0.41 | -2.49 ± 0.23 |
| AUCUAGCAAUAUUACGGUUA | -0.746 ± 0.15 | -0.055 ± 0.12 |
| AUCUAGCAAUAUUACGUACA | -1.73 ± 0.15 | 0.464 ± 0.17 |
| AUCUAGCAAUAUUACGUCCA | -0.699 ± 0.14 | 0.279 ± 0.12 |
| AUCUAGCAAUAUUACGUCCC | -0.434 ± 0.3 | -0.129 ± 0.27 |
| AUCUAGCAAUAUUACGUCUU | -0.776 ± 0.077 | 0.147 ± 0.1 |
| AUCUAGCAAUAUUACGUGUG | -2.16 ± 0.1 | -1.49 ± 0.12 |
| AUCUAGCAAUAUUACGUUAU | -1.79 ± 0.11 | -1.46 ± 0.11 |
| AUCUAGCAAUAUUACGUUCU | -1.52 ± 0.09 | -0.607 ± 0.11 |
| AUCUAGCAAUAUUACGUUUA | -2.26 ± 0.13 | -2.3 ± 0.13 |
| AUGAAGCAAUAUUACGAGGC | -4.11 ± 0.27 | -2.77 ± 0.23 |
| AUGAAGCAAUAUUACGAGUA | -2.12 ± 0.079 | -0.848 ± 0.088 |
| AUGAAGCAAUAUUACGAGUG | -1.22 ± 0.056 | -0.514 ± 0.081 |
| AUGAAGCAAUAUUACGAUAC | -0.832 ± 0.11 | -1.5 ± 0.17 |
| AUGAAGCAAUAUUACGCCGA | -0.724 ± 0.11 | -0.149 ± 0.15 |
| AUGAAGCAAUAUUACGCGCU | -0.561 ± 0.082 | 0.35 ± 0.11 |
| AUGAAGCAAUAUUACGCUCU | -0.29 ± 0.15 | 0.111 ± 0.18 |

| Sequence | self-splicing fitness (ln) (30 °C) | self-splicing fitness (ln) (37 °C) |
| --- | --- | --- |
| AUGAAGCAAUAUUACGGAAG | -1.17 ± 0.1 | -0.408 ± 0.16 |
| AUGAAGCAAUAUUACGGAGA | -2.55 ± 0.33 | -0.873 ± 0.23 |
| AUGAAGCAAUAUUACGGAUU | -1.08 ± 0.078 | -0.689 ± 0.1 |
| AUGAAGCAAUAUUACGGGGG | -3.12 ± 0.24 | -2.49 ± 0.28 |
| AUGAAGCAAUAUUACGUAUA | -1.53 ± 0.11 | -0.647 ± 0.11 |
| AUGAAGCAAUAUUACGUGGG | -2.55 ± 0.11 | -2.67 ± 0.14 |
| AUGAAGCAAUAUUACGUUCG | 0.356 ± 0.086 | 0.464 ± 0.12 |
| AUGAAGCAAUAUUACGUUUU | -2.36 ± 0.12 | -1.7 ± 0.15 |
| AUGCAGCAAUAUUACGAAUA | -2.68 ± 0.2 | -1.68 ± 0.16 |
| AUGCAGCAAUAUUACGACGA | -0.531 ± 0.081 | -0.65 ± 0.089 |
| AUGCAGCAAUAUUACGACUU | 0.39 ± 0.068 | 0.224 ± 0.075 |
| AUGCAGCAAUAUUACGAGUA | -2.98 ± 0.19 | -1.53 ± 0.13 |
| AUGCAGCAAUAUUACGAUAC | -2.96 ± 0.38 | – |
| AUGCAGCAAUAUUACGAUGC | -2.06 ± 0.14 | -0.432 ± 0.14 |
| AUGCAGCAAUAUUACGCACC | -1.11 ± 0.18 | -0.696 ± 0.21 |
| AUGCAGCAAUAUUACGCAGA | -2.98 ± 0.16 | -1.71 ± 0.12 |
| AUGCAGCAAUAUUACGCAUG | -3.28 ± 0.35 | -2.66 ± 0.31 |
| AUGCAGCAAUAUUACGCAUU | -3.49 ± 0.11 | -3.37 ± 0.19 |
| AUGCAGCAAUAUUACGCCAA | -1.09 ± 0.12 | -0.608 ± 0.14 |
| AUGCAGCAAUAUUACGCCUG | -2.61 ± 0.35 | – |
| AUGCAGCAAUAUUACGCGGC | -3.79 ± 0.47 | – |
| AUGCAGCAAUAUUACGGCAA | 0.0857 ± 0.12 | 0.0922 ± 0.12 |
| AUGCAGCAAUAUUACGGCGG | -1.76 ± 0.068 | -0.59 ± 0.081 |
| AUGCAGCAAUAUUACGGGAU | -2.25 ± 0.088 | -1.06 ± 0.097 |

| Sequence | self-splicing fitness (ln) (30 °C) | self-splicing fitness (ln) (37 °C) |
| --- | --- | --- |
| AUGCAGCAAUAUUACGGGGG | -3.09 ± 0.18 | -1.9 ± 0.16 |
| AUGCAGCAAUAUUACGGGGU | -3.71 ± 0.17 | -2.88 ± 0.18 |
| AUGCAGCAAUAUUACGGUGA | -0.911 ± 0.093 | -0.872 ± 0.1 |
| AUGCAGCAAUAUUACGGUUA | -1.11 ± 0.079 | -0.0917 ± 0.071 |
| AUGCAGCAAUAUUACGUACC | -0.541 ± 0.084 | 0.409 ± 0.1 |
| AUGCAGCAAUAUUACGUAUG | -3.15 ± 0.16 | -1.09 ± 0.16 |
| AUGCAGCAAUAUUACGUCGA | -1.61 ± 0.09 | -0.738 ± 0.11 |
| AUGCAGCAAUAUUACGUCGC | -3.69 ± 0.31 | -2.57 ± 0.32 |
| AUGCAGCAAUAUUACGUCUC | -1.93 ± 0.071 | -1.05 ± 0.092 |
| AUGCAGCAAUAUUACGUGAG | -1.36 ± 0.049 | -1.06 ± 0.073 |
| AUGCAGCAAUAUUACGUUCC | -1.55 ± 0.18 | -1.17 ± 0.22 |
| AUGCAGCAAUAUUACGUUGG | -2.96 ± 0.098 | -2.33 ± 0.17 |
| AUGCAGCAAUAUUACGUUUU | -2.8 ± 0.1 | -1.65 ± 0.099 |
| AUGGAGCAAUAUUACGAGGU | -2.74 ± 0.2 | -3.38 ± 0.31 |
| AUGGAGCAAUAUUACGCACG | -2.3 ± 0.3 | -1.26 ± 0.34 |
| AUGGAGCAAUAUUACGCCUG | -2.34 ± 0.27 | -2.3 ± 0.28 |
| AUGGAGCAAUAUUACGCGGU | -2.6 ± 0.25 | -2.29 ± 0.25 |
| AUGGAGCAAUAUUACGGAUU | -2.09 ± 0.13 | 0.177 ± 0.13 |
| AUGGAGCAAUAUUACGGGGA | -3.29 ± 0.4 | -2.28 ± 0.32 |
| AUGGAGCAAUAUUACGGUGU | -2.12 ± 0.18 | -0.816 ± 0.24 |
| AUGGAGCAAUAUUACGUAGA | – | -2.39 ± 0.42 |
| AUGGAGCAAUAUUACGUCGG | -2.7 ± 0.26 | -1.13 ± 0.24 |
| AUGGAGCAAUAUUACGUUAG | -3.17 ± 0.32 | -2.49 ± 0.29 |
| AUGGAGCAAUAUUACGUUAU | -2.96 ± 0.13 | -1.77 ± 0.12 |
